For series [1], the target named is Myf5 (full length, mouse) (mouse) (UniProt P24699).
Series [2] shares this target. This is another data set of the same source.
The target of series [3] is MyoD (full length, mouse) (mouse) (UniProt P10085).
Series [4] addresses Myogenin (full length, mouse) (mouse) (UniProt P12979).
In series [5] the target is Myf5 (full length, mouse) (mouse) (UniProt P24699). This is another data set of the same source.
Series [6] has as its target Myogenin (full length, mouse) (mouse) (UniProt P12979). The source holds these as a separate data set.
The target of a further series is NLSMyf5 (mouse) (UniProt P24699).
For another series, the target named is NLSMyogenin (mouse) (UniProt P12979).
Series [7] concerns the target E12.
In series [8] the target is E12. In words: yeast one-hybrid, strain L40, β-galactosidase reporter.
Series [9] concerns the target T1, Lethal of Scute (AS-C T3) (Drosophila melanogaster (Fruit fly)) (UniProt P09774).
T1 sequence: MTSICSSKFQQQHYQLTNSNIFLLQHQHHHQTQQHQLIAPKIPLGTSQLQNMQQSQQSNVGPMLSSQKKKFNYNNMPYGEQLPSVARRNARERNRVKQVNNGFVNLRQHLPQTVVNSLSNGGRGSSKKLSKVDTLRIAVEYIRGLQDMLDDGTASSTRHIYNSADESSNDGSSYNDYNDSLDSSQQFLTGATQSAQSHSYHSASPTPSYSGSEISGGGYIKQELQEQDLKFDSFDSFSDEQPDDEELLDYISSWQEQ
Described as above.

For series [10], the target named is Myf5 (full length, mouse) (mouse) (UniProt P24699). The description is as above.
For series [11], the target named is MyoD (full length, mouse) (mouse) (UniProt P10085). Described as above.
Series [12] concerns the target MyoDΔC-VP16 (Mus musculus (Mouse)) (UniProt P10085). Nature of the series: yeast two-hybrid, strain L40, β-galactosidase reporter.
Series [13] addresses MyoDΔN-VP16 (Mus musculus (Mouse)) (UniProt P10085). Described as above.
The target of series [14] is Myf5 (full length, mouse) (mouse) (UniProt P24699). In words: yeast hybrid assay, strain L40, β-galactosidase reporter.
The target of series [15] is VP16 (Human herpesvirus 1 (strain 17) (HHV-1) (Human herpes simplex virus 1)) (UniProt P06492). Described as above.
Series [16] deals with T2, VP16-I-mfa (mouse).
T2 sequence: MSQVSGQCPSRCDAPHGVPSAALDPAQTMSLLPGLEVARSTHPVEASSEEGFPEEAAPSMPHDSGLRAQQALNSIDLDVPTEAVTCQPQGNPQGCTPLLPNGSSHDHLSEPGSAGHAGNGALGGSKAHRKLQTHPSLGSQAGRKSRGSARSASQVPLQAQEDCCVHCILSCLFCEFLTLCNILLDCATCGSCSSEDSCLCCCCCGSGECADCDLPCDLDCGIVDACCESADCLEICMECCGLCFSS
The description is as above.

Series [17] deals with VP16-I-mfc (mouse). The series is described as above.
The target of series [18] is VP16-I-mfb (mouse). The description is as above.
Series [19] concerns the target Myf5 (full length, mouse) (mouse) (UniProt P24699). Nature of the series: yeast hybrid assay, strain L40, β-galactosidase reporter; this LexA fusion is also active with VP16 alone.
The target in series [20] is T2, VP16-I-mfa (mouse). Described as above.
In series [21] the target is VP16-I-mfb (mouse). Described as above.
Series [22] concerns the target VP16-I-mfc (mouse). The description is as above.
In series [23] the target is Myogenin (full length, mouse) (mouse) (UniProt P12979). In words: yeast one-hybrid, strain L40, β-galactosidase reporter.
The target of series [24] is full length Myf5 or myogenin. Described as above.
For the next series, the system named is Myf5 (Mus musculus). In words: cell_activity. As to conditions: NIH3T3.
For another series, the system named is MyoD (Mus musculus). In words: cell_activity. As to conditions: NIH3T3.
The subject of a further series is Myogenin (Mus musculus). In words: cell_activity. As to conditions: NIH3T3.
Series [25] has as its system E12. In words: cell_activity. As to conditions: NIH3T3; 76.3% with I-mfa.

Where only a bound is given, the exact number is not on record here.

Sequence of LexA-I-mfa (P0A7C2 other isoform, or with tags, fused parts or gaps limits assumed): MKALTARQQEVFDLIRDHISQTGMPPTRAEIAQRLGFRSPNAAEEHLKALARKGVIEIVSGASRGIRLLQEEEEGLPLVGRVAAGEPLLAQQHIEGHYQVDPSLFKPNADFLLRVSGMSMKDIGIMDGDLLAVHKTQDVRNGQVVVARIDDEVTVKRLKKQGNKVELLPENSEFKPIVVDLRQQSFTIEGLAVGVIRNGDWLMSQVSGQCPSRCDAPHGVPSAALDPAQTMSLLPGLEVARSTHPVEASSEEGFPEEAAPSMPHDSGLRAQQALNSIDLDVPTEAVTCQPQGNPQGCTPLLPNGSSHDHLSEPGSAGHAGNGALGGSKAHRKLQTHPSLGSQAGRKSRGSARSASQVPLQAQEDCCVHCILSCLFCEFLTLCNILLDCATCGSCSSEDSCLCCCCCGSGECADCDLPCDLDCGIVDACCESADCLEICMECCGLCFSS
Sequence of LexA-I-mfb (P0A7C2 other isoform, or with tags, fused parts or gaps limits assumed): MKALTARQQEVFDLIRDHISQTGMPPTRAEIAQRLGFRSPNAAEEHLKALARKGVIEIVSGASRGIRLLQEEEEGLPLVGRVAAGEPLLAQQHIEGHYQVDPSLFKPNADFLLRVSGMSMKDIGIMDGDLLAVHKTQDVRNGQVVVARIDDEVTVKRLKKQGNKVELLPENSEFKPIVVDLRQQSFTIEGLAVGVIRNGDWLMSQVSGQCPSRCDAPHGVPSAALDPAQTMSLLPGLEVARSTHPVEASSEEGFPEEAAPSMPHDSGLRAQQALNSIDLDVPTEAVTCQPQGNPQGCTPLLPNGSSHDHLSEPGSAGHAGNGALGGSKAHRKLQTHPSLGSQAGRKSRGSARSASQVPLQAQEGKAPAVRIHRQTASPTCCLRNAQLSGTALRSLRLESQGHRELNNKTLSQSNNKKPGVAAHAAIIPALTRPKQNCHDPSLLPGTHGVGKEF
Sequence of LexA-I-mfc (P0A7C2 other isoform, or with tags, fused parts or gaps limits assumed): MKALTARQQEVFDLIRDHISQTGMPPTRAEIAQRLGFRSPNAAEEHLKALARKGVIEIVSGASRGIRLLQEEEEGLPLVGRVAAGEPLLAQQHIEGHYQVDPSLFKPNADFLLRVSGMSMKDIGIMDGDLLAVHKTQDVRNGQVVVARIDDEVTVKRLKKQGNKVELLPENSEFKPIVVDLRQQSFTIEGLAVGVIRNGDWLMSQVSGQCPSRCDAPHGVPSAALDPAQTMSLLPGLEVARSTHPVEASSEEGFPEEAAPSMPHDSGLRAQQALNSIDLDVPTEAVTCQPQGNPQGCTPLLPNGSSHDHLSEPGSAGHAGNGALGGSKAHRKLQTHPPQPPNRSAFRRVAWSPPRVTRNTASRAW
Sequence of Myogenin (full length, mouse) (mouse) (P12979 whole entry): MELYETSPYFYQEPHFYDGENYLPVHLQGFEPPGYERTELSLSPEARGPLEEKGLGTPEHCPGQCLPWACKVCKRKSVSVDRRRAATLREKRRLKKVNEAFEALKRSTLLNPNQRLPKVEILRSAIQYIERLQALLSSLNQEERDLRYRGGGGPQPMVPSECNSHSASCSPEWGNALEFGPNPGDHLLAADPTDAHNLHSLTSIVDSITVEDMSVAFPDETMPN
Sequence of LexA-I-mfa (203-246) (P0A7C2 other isoform, or with tags, fused parts or gaps limits assumed): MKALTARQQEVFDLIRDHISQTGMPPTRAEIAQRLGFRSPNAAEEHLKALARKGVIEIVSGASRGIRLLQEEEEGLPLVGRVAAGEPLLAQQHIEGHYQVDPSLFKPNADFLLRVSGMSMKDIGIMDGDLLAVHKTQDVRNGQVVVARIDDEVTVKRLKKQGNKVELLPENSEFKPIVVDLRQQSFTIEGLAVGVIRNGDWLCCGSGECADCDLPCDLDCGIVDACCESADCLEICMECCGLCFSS
Sequence of LexA (P0A7C2 whole entry): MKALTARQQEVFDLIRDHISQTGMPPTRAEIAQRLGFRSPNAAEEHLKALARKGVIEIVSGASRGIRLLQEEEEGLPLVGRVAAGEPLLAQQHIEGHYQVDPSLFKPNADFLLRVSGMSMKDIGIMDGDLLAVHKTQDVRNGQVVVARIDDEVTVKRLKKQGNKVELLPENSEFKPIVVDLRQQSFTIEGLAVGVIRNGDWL
Sequence of LexA-I-mfa (163-246) (P0A7C2 other isoform, or with tags, fused parts or gaps limits assumed): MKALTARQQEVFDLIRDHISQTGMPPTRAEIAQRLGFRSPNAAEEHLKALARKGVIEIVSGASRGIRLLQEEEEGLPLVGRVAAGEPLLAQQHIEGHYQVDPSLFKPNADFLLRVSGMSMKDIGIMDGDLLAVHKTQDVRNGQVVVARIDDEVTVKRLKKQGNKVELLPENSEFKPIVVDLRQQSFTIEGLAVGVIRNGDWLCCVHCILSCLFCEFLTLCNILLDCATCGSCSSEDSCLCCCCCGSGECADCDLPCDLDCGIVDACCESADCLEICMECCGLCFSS

As to HA-I-mfa, the CAT (%) +Myf5, p4R-TK-CAT reporter, NIH3T3 in series [1] turned out to be 2%. Further, the Relative CAT Activity (%), p4R-TK-CAT, NIH3T3 turned out to be 0.9% in series [2], 10.6% in series [3] and 1.5% in series [4]. Also, the Relative CAT Activity (%), experiment of Table 7 was determined as 0.1% in series [5], 0.6% in series [6], 3.7% in the series with NLSMyf5 (mouse) and 7.5% with NLSMyogenin (mouse).

In the series with E12 [7], HA-I-mfa (1-202) showed a CAT (%) +E12, p4R-TK-CAT reporter, NIH3T3 of 113%. Also, the CAT (%) +Myf5, p4R-TK-CAT reporter, NIH3T3 in series [1] was found to be 5%.

HA-I-mfa (29-246): the CAT (%) +E12, p4R-TK-CAT reporter, NIH3T3 in the series with E12 [7] was 81%. The same substance had a CAT (%) +Myf5, p4R-TK-CAT reporter, NIH3T3 in [1] of 4%.

For the substance HA-I-mfa (87-202), the CAT (%) +E12, p4R-TK-CAT reporter, NIH3T3 with E12 [7] was determined as 89%. In series [1], this substance had a CAT (%) +Myf5, p4R-TK-CAT reporter, NIH3T3 of 7%.

As to HA-I-mfa (87-246), in the series with E12 [7], the CAT (%) +E12, p4R-TK-CAT reporter, NIH3T3 turned out to be 53%. The CAT (%) +Myf5, p4R-TK-CAT reporter, NIH3T3 in series [1] amounted to 2%.

As to HA-I-mfa (163-202), the CAT (%) +E12, p4R-TK-CAT reporter, NIH3T3 with E12 [7] came to 98%. Also, the CAT (%) +Myf5, p4R-TK-CAT reporter, NIH3T3 in series [1] was 44%.

Take HA-I-mfa (163-246): the CAT (%) +E12, p4R-TK-CAT reporter, NIH3T3 with E12 [7] worked out at 18%. For the same substance, the CAT (%) +Myf5, p4R-TK-CAT reporter, NIH3T3 in [1] turned out to be 2%.

Turning to HA-I-mfa (203-246), in the series with E12 [7], the CAT (%) +E12, p4R-TK-CAT reporter, NIH3T3 turned out to be 93%. The same substance displayed a CAT (%) +Myf5, p4R-TK-CAT reporter, NIH3T3 in series [1] of 78%.

As for HA-I-mfb, the CAT (%) +E12, p4R-TK-CAT reporter, NIH3T3 in the series with E12 [7] was 100%. In addition, the CAT (%) +Myf5, p4R-TK-CAT reporter, NIH3T3 in [1] was found to be 74.5%. The Relative CAT Activity (%), p4R-TK-CAT, NIH3T3 was found to be 94.8% in [2], 96.5% in [3] and 82.7% in series [4].

Regarding HA-I-mfc, the CAT (%) +E12, p4R-TK-CAT reporter, NIH3T3 with E12 [7] amounted to 99%. Further, the CAT (%) +Myf5, p4R-TK-CAT reporter, NIH3T3 in [1] came to 65%. Also, the Relative CAT Activity (%), p4R-TK-CAT, NIH3T3 in series [2] stood at 96.4%; in series [3], 96.1%; in [4], 68%.

For the substance LexA (from UniProt P0A7C2), the β-galactosidase activity (arbitrary units) was 2.3 in the series with E12 [8]; 1.6 in series [9]; 0.9 in [10]; 0.6 in series [11]; 0.6 in series [12]; 0.9 in [13].

Take “LexA-I-mfa (1-202) (from UniProt P0A7C2)”: the β-galactosidase activity (arbitrary units) in series [14] was 34.5; in [15] it was below 0.1; with VP16-I-mfa (mouse) [16], 95.

For the substance “LexA-I-mfa (29-246) (from UniProt P0A7C2)”, the β-galactosidase activity (arbitrary units) in series [14] came out at 84.7; in series [15], 0.8; with VP16-I-mfa (mouse) [16] it was 10.1.

Regarding “LexA-I-mfa (87-202) (from UniProt P0A7C2)”, the β-galactosidase activity (arbitrary units) was 27.6 in series [14], below 0.1 in series [15] and 9.3 with VP16-I-mfa (mouse) [16].

“LexA-I-mfa (87-246) (from UniProt P0A7C2)”: the β-galactosidase activity (arbitrary units) is 74.3 in [14], 0.8 in [15], 12.5 with VP16-I-mfa (mouse) [16] and 0.7 with VP16-I-mfc (mouse) [17].

As for “LexA-I-mfa (163-246) (from UniProt P0A7C2)”, the β-galactosidase activity (arbitrary units) in [14] stood at 71.3; in series [15], 0.3; in the series with VP16-I-mfa (mouse) [16] it was 3.8; with VP16-I-mfb (mouse) [18] it was 0.6; with VP16-I-mfc (mouse) [17], 0.2.

Take “LexA-I-mfa (203-246) (from UniProt P0A7C2)”: the β-galactosidase activity (arbitrary units) was found to be 45.8 in series [15]; 57.2 in [19]; 95.2 with VP16-I-mfa (mouse) [20]; 39.2 with VP16-I-mfb (mouse) [21]; 52.3 with VP16-I-mfc (mouse) [22].

With LexA-I-mfa (from UniProt P0A7C2), the β-galactosidase activity (arbitrary units) with E12 [8] is 2.3; in series [9] it was 2.3; in series [10], 68.5; in [11], 4.3; in [23], 63.6; in series [12], 5.6. Also, the β-galactosidase activity (arbitrary units) is 96.4 in [13], 66 in [14], 0.5 in series [15] and 6.4 with VP16-I-mfa (mouse) [16]. This substance gave a fold β-galactosidase activity over the LexA-I-mfa control in series [11] of 5 fold. The same substance displayed a fold β-galactosidase activity over LexA-I-mfa alone in [24] of 70 to 80 fold.

On to “LexA-I-mfa(163-202) (from UniProt P0A7C2)”, for which the β-galactosidase activity (arbitrary units) in [14] is 57.1; with VP16-I-mfa (mouse) [16], 4.3; with VP16-I-mfb (mouse) [18], 0.2; with VP16-I-mfc (mouse) [17], below 0.1.

For LexA-I-mfb (from UniProt P0A7C2), the β-galactosidase activity (arbitrary units) in the series with E12 [8] was 0.6; in series [10], 0.4; in series [11], 1.1; in series [14], below 0.1; in [15], below 0.1; in the series with VP16-I-mfa (mouse) [16] it was 0.2. In the series with VP16-I-mfb (mouse) [18], the β-galactosidase activity (arbitrary units) was below 0.1.

Turning to LexA-I-mfc (from UniProt P0A7C2), the β-galactosidase activity (arbitrary units) in the series with E12 [8] was 1.4; in [9] it was 0.1; in [11] it was 0.4; in [15], below 0.1; in the series with VP16-I-mfa (mouse) [16], below 0.1; in the series with VP16-I-mfc (mouse) [17] it was below 0.1.

In the case of MCK-CAT reporter, 3.3 kb MCK promoter, the activity stood at 79500 CAT units in the series with Myf5 (Mus musculus) (reduced to 9% by I-mfa, text names p4R-TK-CAT but Table 6 MCK-CAT); 37200 CAT units with MyoD (Mus musculus) (reduced to 27% by I-mfa, text names p4R-TK-CAT but Table 6 MCK-CAT); 33000 CAT units in the series with Myogenin (Mus musculus) (reduced to 2% by I-mfa, text names p4R-TK-CAT but Table 6 MCK-CAT).

“p4R-TK-CAT reporter, four oligomerized MyoD binding sites (E boxes)”: the activity with E12 [25] came to 53600 CAT units; in the series with Myf5 (Mus musculus) (reduced to 0.9% by I-mfa), 53100 CAT units; with MyoD (Mus musculus) (reduced to 10.6% by I-mfa), 55400 CAT units; in the series with Myogenin (Mus musculus) (reduced to 1.5% by I-mfa) it was 17400 CAT units.

Values taken from patent US5885797.
